{"source": "paper PMC4176340", "about": "“Structure and function of TatD exonuclease in DNA repair”", "molecular_target": "T1, TatD (Escherichia coli K12, UniProt P27859 1-260)", "T1 sequence": "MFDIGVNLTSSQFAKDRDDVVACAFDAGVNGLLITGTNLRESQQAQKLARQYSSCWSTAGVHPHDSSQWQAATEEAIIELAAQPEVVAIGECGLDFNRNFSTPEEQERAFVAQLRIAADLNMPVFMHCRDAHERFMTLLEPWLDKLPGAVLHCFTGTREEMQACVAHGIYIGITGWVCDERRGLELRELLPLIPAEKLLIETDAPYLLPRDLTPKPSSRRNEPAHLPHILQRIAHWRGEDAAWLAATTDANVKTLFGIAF", "assay": "X-ray crystallography 2.9 A; no metal ion identified; only trinucleotide GCT seen, weak density, occupancy 0.7, inactive conformation, likely cleaved product; Co-crystals: TatD 7-8 mg/ml in 10 mM MOPS, 250 mM NaCl, DNA at 1:1.2 (TatD:DNA); reservoir 4% Tacsmate pH 4, 12% PEG 3350; temperature not stated. Nuclease assays (turnover only) not listed", "details": "protein: recombinant; tags: C-terminal His-tag (pET22b); single strand; only 5'-GCT-3' modelled (digestion product or ordered 3' end)", "data": [{"binder": "GCTTAGCT (ssDNA)", "note": "[8-nt ssDNA used for co-crystallization]", "values": [{"measurement": "binding result", "result": "binds"}]}]}
